# Measured values taken from PMC8514580, “Insight into the interaction between the RNA helicase CGH-1 and EDC-3 and its implications” (Scientific Reports, 2021).
# Substitutions are numbered along the chain they refer to. In names and notes the source's numbering stands. Read-outs that look alike come from different tables or passages of the source. No end group written: not given here.
# T1: CGH-1_(248–420) wild type (CGH-1 RecA2 domain) (C. elegans, UniProt Q95YF3 248-420)
# T1 construct: Cloned into NdeI/XhoI of a modified pET-28a in which the thrombin cleavage site was removed; also called CGH-1_248-420^WT; source: E. coli Gold (DE3), purified (Ni-chelating resin, SEC Superdex 75)
# T1 sequence (looked up): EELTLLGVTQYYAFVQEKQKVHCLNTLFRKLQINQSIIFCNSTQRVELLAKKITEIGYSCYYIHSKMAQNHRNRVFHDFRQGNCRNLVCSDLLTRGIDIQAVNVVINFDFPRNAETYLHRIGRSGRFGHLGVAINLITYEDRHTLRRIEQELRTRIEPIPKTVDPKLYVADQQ
# T2: CGH-1_(248–420) F261A (C. elegans, UniProt Q95YF3 248-420, F261A)
# T2 construct: Mutant of m1 made with the MutanBEST kit; source: E. coli Gold (DE3), purified (Ni-chelating resin, SEC Superdex 75)
# T2 sequence (looked up): T1 sequence (looked up) with F14A
# T3: CGH-1_(248–420) Q266A (C. elegans, UniProt Q95YF3 248-420, Q266A)
# T3 construct: Mutant of m1 made with the MutanBEST kit; source: E. coli Gold (DE3), purified (Ni-chelating resin, SEC Superdex 75)
# T3 sequence (looked up): T1 sequence (looked up) with Q19A
# T4: CGH-1_(248–420) H269A (C. elegans, UniProt Q95YF3 248-420, H269A)
# T4 construct: Mutant of m1 made with the MutanBEST kit; source: E. coli Gold (DE3), purified (Ni-chelating resin, SEC Superdex 75)
# T4 sequence (looked up): T1 sequence (looked up) with H22A
# T5: CGH-1_(248–420) K277A (C. elegans, UniProt Q95YF3 248-420, K277A)
# T5 construct: Mutant of m1 made with the MutanBEST kit; source: E. coli Gold (DE3), purified (Ni-chelating resin, SEC Superdex 75)
# T5 sequence (looked up): T1 sequence (looked up) with K30A
# T6: CGH-1_(248–420) K277E (C. elegans, UniProt Q95YF3 248-420, K277E)
# T6 construct: Mutant of m1 made with the MutanBEST kit; source: E. coli Gold (DE3), purified (Ni-chelating resin, SEC Superdex 75)
# T6 sequence (looked up): T1 sequence (looked up) with K30E
# T7: CGH-1_(248–420) R393A (C. elegans, UniProt Q95YF3 248-420, R393A)
# T7 construct: Mutant of m1 made with the MutanBEST kit; source: E. coli Gold (DE3), purified (Ni-chelating resin, SEC Superdex 75)
# T7 sequence (looked up): T1 sequence (looked up) with R146A
# T8: CGH-1_(248–420) E396A (C. elegans, UniProt Q95YF3 248-420, E396A)
# T8 construct: Mutant of m1 made with the MutanBEST kit; source: E. coli Gold (DE3), purified (Ni-chelating resin, SEC Superdex 75)
# T8 sequence (looked up): T1 sequence (looked up) with E149A
# T9: CGH-1_(248–420) 4A mutant (His269, Cys270, Thr273 and Leu274 to Ala) (C. elegans, UniProt Q95YF3 248-420, His269 to Ala | Cys270 to Ala | Thr273 to Ala | Leu274 to Ala)
# T9 construct: Mutant of m1 made with the MutanBEST kit; also called four-alanine mutant; source: E. coli Gold (DE3), purified (Ni-chelating resin, SEC Superdex 75)
# T9 sequence (looked up): T1 sequence (looked up) with H22A, C23A, T26A, L27A
# B1: EDC-3 FDF peptide (EDC-3_(235–271)) (peptide)
# peptide: LADPIDFDLDSDFDFAENLKLFEKDENDDQYYETVEK
# notes: Enhancer of decapping-3 (EDC-3, also called LSm16), C. elegans, FDF fragment, residues 235-271; Printed with free NH2 and COOH ends; also called EDC-3 peptide; EDC-3 FDF-FEK peptide; source: synthetic peptide (GL Biochem, Shanghai)
# B2: YFP-tagged PATL1 W46A: substitution of Trp46 to Ala in the YFP-tagged PATL1 (protein, UniProt Q86TB9 1-770, looked up, variant W46A)
# Protein PAT1 homolog 1: MFRYESLEDCPLDEDEDAFQGLGEEDEEIDQFNDDTFGSGAVDDDAQEAHERLAELEEKLPVAVNEQTGNGERDEMDLLGDHEENLAERLSKMVIENELEDPAIMRAVQTRPVLQPQPGSLNSSIWDGSEVLRRIRGPLLAQEMPTVSVLEYALPQRPPQGPEDDRDLSERALPRRSTSPIIGSPPVRAVPIGTPPKQMAVPSFTQQILCPKPVHVRPPMPPRYPAPYGERMSPNQLCSVPNSSLLGHPFPPSVPPVLSPLQRAQLLGGAQLQPGRMSPSQFARVPGFVGSPLAAMNPKLLQGRVGQMLPPAPGFRAFFSAPPSATPPPQQHPPGPGPHLQNLRSQAPMFRPDTTHLHPQHRRLLHQRQQQNRSQHRNLNGAGDRGSHRSSHQDHLRKDPYANLMLQREKDWVSKIQMMQLQSTDPYLDDFYYQNYFEKLEKLSAAEEIQGDGPKKERTKLITPQVAKLEHAYKPVQFEGSLGKLTVSSVNNPRKMIDAVVTSRSEDDETKEKQVRDKRRKTLVIIEKTYSLLLDVEDYERRYLLSLEEERPALMDDRKHKICSMYDNLRGKLPGQERPSDDHFVQIMCIRKGKRMVARILPFLSTEQAADILMTTARNLPFLIKKDAQDEVLPCLLSPFSLLLYHLPSVSITSLLRQLMNLPQSAATPALSNPHLTAVLQNKFGLSLLLILLSRGEDLQSSDPATESTQNNQWTEVMFMATRELLRIPQAALAKPISIPTNLVSLFSRYVDRQKLNLLETKLQLVQGIR
# modifications: YFP tag
# B3: CAR-1 FDF-TFG (CAR-1_(184–268)) (domain or fragment, C. elegans, UniProt Q9XW17 184-268, looked up)
# chain: LKFESDFDFEKANEKFQEVLVDNLEKLNIEDKAEPEVEEKKDAAFYDKKTSFFDNISCESLEKAEGKTGRPDWKKERETNQETFG
# notes: thrombin site of the vector removed; also called CAR-1_184-268^WT; recombinant CAR-1_(184–268) protein; source: recombinant; plasmid in modified pET-28a
# How the values were obtained:
# [1] = target: CGH-1_248-420^F355A (Caenorhabditis elegans, UniProt Q95YF3, F355A); details: ITC, 20 °C, pH 7.5, 150 mM NaCl, CGH-1 F355A
# CGH-1_248-420^F355A, sequence (Q95YF3 248-420 F355A): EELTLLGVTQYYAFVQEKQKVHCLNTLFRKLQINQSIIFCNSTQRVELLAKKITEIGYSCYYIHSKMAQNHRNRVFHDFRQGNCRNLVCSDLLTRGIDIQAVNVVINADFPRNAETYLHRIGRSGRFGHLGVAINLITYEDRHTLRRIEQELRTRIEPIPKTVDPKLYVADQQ
# Experimental: Expression plasmids regarding CGH-1 and CAR-1 were constructed as previously described. In brief, the cDNA fragments encoding CGH-1 RecA2 (residues 248–420), CAR-1 FDF-TFG (residues 184–268) were amplified by PCR from C. elegans genome library and cloned into the NdeI and XhoI site of a modified pET-28a (Novagen) vector (p28a), in which a thrombin protease cleavage site was removed.
# CGH-1 protein expression and purification were performed described as in our most recent paper. In brief, proteins were expressed in E. coli Gold (DE3) strain (Novagen). […] Cells were resuspended in Buffer A (20 mM Tris–HCl, pH 7.5, 1 M NaCl), and then lysed using high pressure at 4 °C. Proteins were initially purified by Ni-chelating resin (Qiagen), and further purified by size exclusion chromatography (SEC) on a Superdex 75 column (GE healthcare) in Buffer A. The purified proteins were dialyzed into Buffer B (20 mM Tris–HCl, pH 7.5, 150 mM NaCl).
# A peptide containing the C. elegans EDC-3 FDF fragment (residues 235–271) and PATR-1 fragment (residues 30–67) were synthesized from GL Biochem (Shanghai, China) Co., Ltd, respectively. Stock solutions of peptide were prepared in Buffer B described above, and were adjusted to pH 7.5 ± 0.02 for subsequent experiments.
# ITC assays were performed as previously described. In brief, it was carried out on a MicroCal PEAQ-ITC (Malvern) at 20 °C with the following settings: reference power, 5 μcal/s; initial delay, 60 s; stir speed, 750 rpm; spacing time, 120 s. Proteins (or its mutants) and peptides were adjusted to 0.05 mM and 0.5 mM, respectively. Experiments were initialed by injection of 1 μl each of peptide into the sample cell (200 μl) filled with protein (or its mutants) solution, followed by 18 injections of 2 μl. The ITC data were fitted with a one-binding-site model using the Origin analysis software.
# [2] = target: T1, CGH-1_(248–420) wild type (CGH-1 RecA2 …); assay: ITC; ligand (peptide or CAR-1 fragment, 0.5 mM) injected into CGH-1_(248-420) or mutant (0.05 mM) in the cell; 20 °C; Buffer B (20 mM Tris-HCl pH 7.5, 150 mM NaCl); one-binding-site model; details: both partners purified
# [3] = target: T2, CGH-1_(248–420) F261A; assay: as above; details: both partners purified
# [4] = target: T3, CGH-1_(248–420) Q266A; assay: as above; details: both partners purified
# [5] = target: T4, CGH-1_(248–420) H269A; assay: as above; details: both partners purified
# [6] = target: T5, CGH-1_(248–420) K277A; assay: as above; details: both partners purified
# [7] = target: T6, CGH-1_(248–420) K277E; assay: as above; details: both partners purified
# [8] = target: T7, CGH-1_(248–420) R393A; assay: as above; details: both partners purified
# [9] = target: T8, CGH-1_(248–420) E396A; assay: as above; details: both partners purified
# [10] = target: T9, CGH-1_(248–420) 4A mutant (His269, …); assay: as above; details: both partners purified
# [11] = test system: human HA-tagged DDX6; details: Co-immunoprecipitation, YFP-tagged PATL1 mutants; cited from earlier work
molecule,measurement,setting,value
SDEDHNIFDDEFDAANDETFGGGLDNIGENAELENYAT [PATR-1_30–67],KD / binding (in words),[1],almost abolished the binding
same,KD / binding (in words),[1]; listed as CePATR-1_30–67,almost abolishes the binding
same,KD / binding (in words),[1]; listed as PATR1 30-67,No binding
same,KD / binding (in words),[1]; listed as PATR-1 peptide,undetectable binding
B1,dH,[2],-17.6 ± 0.09 kcal per mol
same,stoichiometry N,[2],1.07
same,Kd,[3],1160 ± 240 nM
same,dH,[3],-14.1 ± 0.48 kcal per mol
same,stoichiometry N,[3],1.09
same,Kd,[4],1750 ± 380 nM
same,dH,[4],-12.1 ± 0.51 kcal per mol
same,stoichiometry N,[4],1.1
same,Kd,[5],2550 ± 320 nM
same,dH,[5],-12.5 ± 0.34 kcal per mol
same,stoichiometry N,[5],1.03
same,Kd,[6],2740 ± 340 nM
same,dH,[6],-15.2 ± 0.47 kcal per mol
same,stoichiometry N,[6],1.22
same,Kd,[7],5970 ± 510 nM
same,dH,[7],-11.5 ± 0.3 kcal per mol
same,stoichiometry N,[7],1.12
same,Kd,[8],2070 ± 280 nM
same,dH,[8],-17.3 ± 0.47 kcal per mol
same,stoichiometry N,[8],0.99
same,Kd,[9],850 ± 110 nM
same,dH,[9],-16.1 ± 0.31 kcal per mol
same,stoichiometry N,[9],1
same,Kd,[10],8750 ± 3640 nM
same,dH,[10],-5.94 ± 0.89 kcal per mol
same,stoichiometry N,[10],0.79
B2,interaction with DDX6,[11],impaired the interaction
B3,Kd,[2],3030 ± 210 nM
same,dH,[2],-27 ± 0.43 kcal per mol
same,stoichiometry N,[2],0.89
